Laboratory results reported in patent US20210324054A1.
Where a chain is given by its changes, count along the chain named.

B1: WT (recombinant anti-dengue virus NS1 7F8 antibody of Example 2) (antibody, mouse IgG1, kappa, V domains shown)
VH: EVQLQQPGPELVKPGASVKMSCKASGYTVTSYVIHWVRQKPGQGLEWIGYMNAYNDGIKYNEKFIGKAILTSDKSSSTAYMQLSSLTSEDSAVYYCTKEGLFYVMDYWGQGTSVTVSS
VL: QIVLTQSPAIMSASPGEKVTMTCSATSSISYMHWYQQKSGTSPKRWIYDTSKLASPVPVRFSGSGSGTSYSLTISSMEAEDAATYFCQYWRSDLPTFGAGTKLELKR
B2: Mutation 1-12 (antibody, V domains shown)
VH: B1 VH with V29F, Y32T, A53P, K98R
VL: B1 VL with P56G
B3: Mutation 1-15 (antibody, V domains shown)
VH: B1 VH with V29F, Y32T, A53P, M105F
VL: B1 VL with T50S, P56G
B4: Mutation 1-8 (antibody, V domains shown)
VH: B1 VH with V29F, A53P, K98R
VL: B1 VL with I29V, P56G, Y89Q
B5: Mutation 1-17 (antibody, V domains shown)
VH: B1 VH with V29F, A53P
VL: B1 VL with I29V, T50S, P56G, Y89W
B6: Mutation 1-18 (antibody, V domains shown)
VH: B1 VH with V29F, Y32T, A53P, I58L, M105F
VL: B1 VL with I29L, T50S, P56G
B7: Mutation 1-11 (antibody, V domains shown)
VH: B1 VH with V29F, A53P, I58L, M105F
VL: B1 VL with I29V, T50S, P56G, Y89Q
B8: Mutation 1 (antibody, V domains shown)
VH: B1 VH with V29F, Y32T, A53P, I58L
VL: B1 VL with P56G, Y89Q
B9: Mutation 1-7 (antibody, V domains shown)
VH: B1 VH with V29F, Y32S, A53P, I58L, M105F
VL: B1 VL with I29L, T50S, P56G, Y89W
B10: Mutation 1-4 (antibody, V domains shown)
VH: B1 VH with V29F, Y32S, A53P, I58L
VL: B1 VL with I29L, P56G, Y89W
B11: Mutation 1-1 (antibody, V domains shown)
VH: B1 VH with V29F, Y32S, A53P, M105F
VL: B1 VL with I29L, T50S, P56G, Y89W
B12: Mutation 2 (antibody, V domains shown)
VH: B1 VH with V29F, Y32T, A53G, I58L, E62N
VL: B1 VL with P56A, Y89Q
B13: Mutation 1-3 (antibody, V domains shown)
VH: B1 VH with V29F, Y32T, A53P, K98R, M105F
VL: B1 VL with T50S, P56G
B14: Mutation 1-14 (antibody, V domains shown)
VH: B1 VH with V29F, A53P
VL: B1 VL with I29V, T50S, P56G, Y89Q
B15: Mutation 1-9 (antibody, V domains shown)
VH: B1 VH with V29F, Y32T, A53P, I58L, K98R, M105F
VL: B1 VL with T50S, P56G
B16: Mutation 1-16 (antibody, V domains shown)
VH: B1 VH with V29F, Y32S, A53P, I58L, K98R
VL: B1 VL with I29L, P56G, Y89W
B17: Mutation 1-6 (antibody, V domains shown)
VH: B1 VH with V29F, Y32T, A53P
VL: B1 VL with P56G
B18: Mutation 1-21 (antibody, V domains shown)
VH: B1 VH with V29F, Y32T, A53P, K98R
VL: B1 VL with I29L, P56G, Y89W
B19: Mutation 1-2 (antibody, V domains shown)
VH: B1 VH with V29F, A53P, I58L, K98R
VL: B1 VL with I29V, P56G, Y89Q
B20: Mutation 1-19 (antibody, V domains shown)
VH: B1 VH with V29F, Y32S, A53P, K98R
VL: B1 VL with I29V, P56G, Y89Q
B21: Mutation 1-22 (antibody, V domains shown)
VH: B1 VH with V29F, Y32S, A53P, I58L, K98R, M105F
VL: B1 VL with I29V, T50S, P56G, Y89W
B22: Mutation 1-10 (antibody, V domains shown)
VH: B1 VH with V29F, Y32S, A53P
VL: B1 VL with I29L, P56G, Y89W
B23: Mutation 1-13 (antibody, V domains shown)
VH: B1 VH with V29F, Y32S, A53P, I58L, K98R, M105F
VL: B1 VL with I29L, T50S, P56G, Y89W
B24: Mutation 3 (antibody, V domains shown)
VH: B1 VH with V29L, Y32T, A53K, I58L, E62P
VL: B1 VL with A25V, P56C, Y89Q, D93Q
B25: Mutation 1-5 (antibody, V domains shown)
VH: B1 VH with V29F, A53P, K98R, M105F
VL: B1 VL with I29V, T50S, P56G, Y89Q
B26: Mutation 1-20 (antibody, V domains shown)
VH: B1 VH with V29F, A53P, I58L, M105F
VL: B1 VL with T50S, P56G

What was measured:
[1] = biological target: Antigen DN-IV-Ag# (Fapon Biotech Inc.) (dengue virus); experiment: indirect ELISA on coated DN-IV-Ag#, antibody initial
[2] = biological target: Antigen DN-IV-Ag# (Fapon Biotech Inc.) (dengue virus); experiment: indirect ELISA on coated DN-IV-Ag#, antibody diluted 9 times
[3] = biological target: Antigen DN-IV-Ag# (Fapon Biotech Inc.) (dengue virus); experiment: indirect ELISA on coated DN-IV-Ag#, antibody diluted 243 times
[4] = biological target: Antigen DN-IV-Ag# (Fapon Biotech Inc.) (dengue virus); experiment: indirect ELISA on coated DN-IV-Ag#, antibody diluted 3 times
[5] = biological target: Antigen DN-IV-Ag# (Fapon Biotech Inc.) (dengue virus); experiment: indirect ELISA on coated DN-IV-Ag#, antibody diluted 729 times
[6] = biological target: Antigen DN-IV-Ag# (Fapon Biotech Inc.) (dengue virus); experiment: indirect ELISA on coated DN-IV-Ag#, antibody diluted 81 times
[7] = biological target: Antigen DN-IV-Ag# (Fapon Biotech Inc.) (dengue virus); experiment: indirect ELISA on coated DN-IV-Ag#, antibody diluted 27 times
[8] = biological target: DN-IV quality control recombinant protein (produced by the company) (dengue virus); experiment: BLI, antibody on AMC sensor

Binder	OD450 (reference 630 nm) [1] [OD]	OD450 (reference 630 nm) [2] [OD]	OD450 (reference 630 nm) [3] [OD]	OD450 (reference 630 nm) [4] [OD]	OD450 (reference 630 nm) [5] [OD]	OD450 (reference 630 nm) [6] [OD]	OD450 (reference 630 nm) [7] [OD]	Kd [8] [nM]	koff [8] [s⁻¹]	kon [8] [M⁻¹ s⁻¹]
B1	1.42	0.781	0.2	1.18	0.211	0.24	0.398	3.15	0.000139	44200
B2	–	–	–	–	–	–	–	2.86	0.000122	42600
B3	–	–	–	–	–	–	–	3.79	0.00017	44800
B4	–	–	–	–	–	–	–	4.08	0.000172	42200
B5	–	–	–	–	–	–	–	2.52	0.000114	45200
B6	–	–	–	–	–	–	–	0.572	0.000243	425000
B7	–	–	–	–	–	–	–	0.725	0.0003	414000
B8	1.61	1.07	0.103	1.39	0.111	0.203	0.445	2.85	0.000126	44200
B9	–	–	–	–	–	–	–	0.652	0.00024	368000
B10	–	–	–	–	–	–	–	0.478	0.000234	490000
B11	–	–	–	–	–	–	–	0.445	0.000181	407000
B12	1.59	1.05	0.11	1.48	0.157	0.216	0.578	–	–	–
B13	–	–	–	–	–	–	–	2.9	0.000119	41100
B14	–	–	–	–	–	–	–	2.75	0.00012	43600
B15	–	–	–	–	–	–	–	0.66	0.000284	430000
B16	–	–	–	–	–	–	–	3.38	0.000124	36700
B17	–	–	–	–	–	–	–	0.499	0.000249	499000
B18	–	–	–	–	–	–	–	0.693	0.000269	388000
B19	–	–	–	–	–	–	–	2.79	0.000116	41600
B20	–	–	–	–	–	–	–	2.41	0.000113	46800
B21	–	–	–	–	–	–	–	0.59	0.000245	415000
B22	–	–	–	–	–	–	–	2.65	0.000129	48700
B23	–	–	–	–	–	–	–	3.47	0.000151	43500
B24	0.923	0.062	–	0.347	–	–	–	–	–	–
B25	–	–	–	–	–	–	–	0.508	0.000213	419000
B26	–	–	–	–	–	–	–	3.53	0.000161	45600
